The results in this text go back to US20240010722A1 (published 2024).

A word on the Kd: it is a measure of binding affinity in units of concentration. Lower therefore signals higher affinity. Usually koff stands for the rate constant with which the complex falls apart. The term kon denotes a measure of how fast the partners come together. The low end stands for slow association, the high end for fast association.

The target in one test is T1, human MAdCAM (human, UniProt Q13477 19-317, limits assumed).
T1 construct: also called huMAdCAM; human MAdCAM-1
T1 sequence (looked up): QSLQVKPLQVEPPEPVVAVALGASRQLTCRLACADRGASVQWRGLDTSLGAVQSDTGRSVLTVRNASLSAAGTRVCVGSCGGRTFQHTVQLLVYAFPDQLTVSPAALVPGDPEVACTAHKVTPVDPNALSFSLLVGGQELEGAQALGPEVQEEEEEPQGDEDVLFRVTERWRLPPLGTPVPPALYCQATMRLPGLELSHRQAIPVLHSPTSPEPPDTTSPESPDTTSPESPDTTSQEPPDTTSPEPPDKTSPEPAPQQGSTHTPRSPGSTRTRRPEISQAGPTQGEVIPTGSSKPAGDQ
Kind of test: BLI (Octet). Background: Biolayer interferometry detects binding as a change in optical thickness at a sensor tip.

The target of test [1] is T2, cyno MAdCAM (cynomolgus).
T2 construct: also called cynomolgus MAdCAM
Kind of test: BLI (Octet).

A further test has as its target T3, mouse MAdCAM (mouse, UniProt Q61826 22-365, limits assumed).
T3 construct: also called mouse MAdCAM-1; muMAdCAM
T3 sequence (looked up): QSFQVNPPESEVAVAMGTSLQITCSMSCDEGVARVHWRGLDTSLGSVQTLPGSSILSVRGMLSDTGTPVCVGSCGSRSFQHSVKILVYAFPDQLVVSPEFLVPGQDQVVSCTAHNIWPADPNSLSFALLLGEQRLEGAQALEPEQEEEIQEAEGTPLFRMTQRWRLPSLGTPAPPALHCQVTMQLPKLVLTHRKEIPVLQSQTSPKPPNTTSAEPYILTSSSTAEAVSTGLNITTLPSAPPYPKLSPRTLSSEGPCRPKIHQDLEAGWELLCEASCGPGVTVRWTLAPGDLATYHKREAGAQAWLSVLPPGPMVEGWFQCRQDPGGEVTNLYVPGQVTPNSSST
Kind of test: BLI (Octet).

For test [2], the target named is T2, cyno MAdCAM. Kind of test: BLI (Octet), binder on anti-human Fc tips.

B1: PMAB18 (bispecific antibody, human IgG1, kappa)
heavy: QVQLVQSGAEVKKPGASVKVSCKASGYSFTTYYMHWVRQAPGQGLEWMGIIAPSGGSTSYAQKFQGRVTMTRDTSTSTVYMELSSLRSEDTAVYYCASGWVYWGQGTLVTVSSASTKGPSVFPLAPSSKSTSGGTAALGCLVKDYFPEPVTVSWNSGALTSGVHTFPAVLQSSGLYSLSSVVTVPSSSLGTQTYICNVNHKPSNTKVDKKVEPKSCDKTHTCPPCPAPEAAGAPSVFLFPPKPKDTLMISRTPEVTCVVVDVSHEDPEVKFNWYVDGVEVHNAKTKPREEQYNSTYRVVSVLTVLHQDWLNGKEYKCKVSNKALPAPIEKTISKAKGQPREPQVYTLPPSREEMTKNQVSLTCLVKGFYPSDIAVEWESNGQPENNYKTTPPVLDSDGSFFLYSKLTVDKSRWQQGNVFSCSVMHEALHNHYTQKSLSLSPGGGGGSGGGGSGGGGSEVQLLESGGGLVQPGGSLRLSCAASGFTFSSYWMHWVRQAPGKGLEWVSYISGSGGYTNYADSVKGRFTISRDNSKNTLYLQMNSLRAEDTAVYYCARDRPYYYDMDVWGKGTTVTVSSGGGGSGGGGSGGGGSGGGGSDIQMTQSPSSLSASVGDRVTITCRASQSISSSLAWYQQKPGKAPKLLIYAASSLQSGVPSRFSGSGSGTDFTLTISSLQPEDFATYYCQQYKSYPVTFGQGTKVEIK
light: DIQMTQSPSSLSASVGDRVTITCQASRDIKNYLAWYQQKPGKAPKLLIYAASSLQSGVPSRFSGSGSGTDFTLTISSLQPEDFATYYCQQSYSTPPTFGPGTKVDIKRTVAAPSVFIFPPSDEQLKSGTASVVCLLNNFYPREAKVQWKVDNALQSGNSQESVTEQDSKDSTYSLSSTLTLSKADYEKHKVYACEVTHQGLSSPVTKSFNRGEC
In the test with human MAdCAM, B1 came in with a Kd of 198 nM, a koff of 0.0511 s⁻¹, a kon of 259000 M⁻¹ s⁻¹ and a response of 0.184. In the test with cyno MAdCAM [1], the affinity, expressed as Kd, was 22.6 nM; the koff was 0.0102 s⁻¹; the kon was 453000 M⁻¹ s⁻¹; the response is 0.145. In the test with mouse MAdCAM, this molecule displayed a Kd of 201 nM, an off-rate constant (koff) of 0.0776 s⁻¹ and a kon of 386000 M⁻¹ s⁻¹.

B2: PMAB54 (bispecific antibody, human IgG1, kappa)
heavy: EVQLVQSGAEVKKPGASVKVSCKASGYSFTSYYMHWVRQAPGQGLEWMGIINPSGGSTSYAQKFQGRVTMTRDTSTSTVYMELSSLRSEDTAVYYCASGWVYWGQGTLVTVSSASTKGPSVFPLAPSSKSTSGGTAALGCLVKDYFPEPVTVSWNSGALTSGVHTFPAVLQSSGLYSLSSVVTVPSSSLGTQTYICNVNHKPSNTKVDKKVEPKSCDKTHTCPPCPAPEAAGAPSVFLFPPKPKDTLMISRTPEVTCVVVDVSHEDPEVKFNWYVDGVEVHNAKTKPREEQYNSTYRVVSVLTVLHQDWLNGKEYKCKVSNKALPAPIEKTISKAKGQPREPQVYTLPPSREEMTKNQVSLTCLVKGFYPSDIAVEWESNGQPENNYKTTPPVLDSDGSFFLYSKLTVDKSRWQQGNVFSCSVMHEALHNHYTQKSLSLSPGGGGGSGGGGSGGGGSEVQLLESGGGLVQPGGSLRLSCAASGFTFSSYWMHWVRQAPGKGLEWVSYISGSGGYTNYADSVKGRFTISRDNSKNTLYLQMNSLRAEDTAVYYCARDRPYYYDIDVWGKGTTVTVSSGGGGSGGGGSGGGGSGGGGSDIQMTQSPSSLSASVGDRVTITCRASQSISSSLAWYQQKPGKAPKLLIYAASSLQSGVPSRFSGSGSGTDFTLTISSLQPEDFATYYCQQYKSYPVTFGQGTKVEIK
light: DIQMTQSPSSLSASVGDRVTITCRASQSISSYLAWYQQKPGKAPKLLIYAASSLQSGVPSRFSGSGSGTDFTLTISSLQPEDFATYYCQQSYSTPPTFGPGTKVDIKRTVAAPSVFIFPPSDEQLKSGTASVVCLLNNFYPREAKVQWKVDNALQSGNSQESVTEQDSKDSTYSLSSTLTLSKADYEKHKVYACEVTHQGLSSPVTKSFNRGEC
In the test with human MAdCAM, B2 registered a Kd of 592 nM, a koff of 0.14 s⁻¹ and a kon of 236000 M⁻¹ s⁻¹. Further, in the test with cyno MAdCAM [1], the Kd was found to be 158 nM, the koff is 0.0114 s⁻¹ and the kon stood at 71900 M⁻¹ s⁻¹. In the test with mouse MAdCAM, this molecule returned a Kd of 248 nM, a koff of 0.00138 s⁻¹ and a kon of 5570 M⁻¹ s⁻¹.

B3: PMAB57 (bispecific antibody, human IgG1, kappa)
heavy: QVQLVQSGAEVKKPGASVKVSCKASGYSFTTYYMHWVRQAPGQGLEWMGIIAPSGGSTSYAQKFQGRVTMTRDTSTSTVYMELSSLRSEDTAVYYCASGWVYWGQGTLVTVSSASTKGPSVFPLAPSSKSTSGGTAALGCLVKDYFPEPVTVSWNSGALTSGVHTFPAVLQSSGLYSLSSVVTVPSSSLGTQTYICNVNHKPSNTKVDKKVEPKSCDKTHTCPPCPAPEAAGAPSVFLFPPKPKDTLMISRTPEVTCVVVDVSHEDPEVKFNWYVDGVEVHNAKTKPREEQYNSTYRVVSVLTVLHQDWLNGKEYKCKVSNKALPAPIEKTISKAKGQPREPQVYTLPPSREEMTKNQVSLTCLVKGFYPSDIAVEWESNGQPENNYKTTPPVLDSDGSFFLYSKLTVDKSRWQQGNVFSCSVMHEALHNHYTQKSLSLSPGGGGGSGGGGSGGGGSEVQLLESGGGLVQPGGSLRLSCAASGFTFSDFWMHWVRQAPGKGLEWISYISGDSGYTNYADSVKGRFTISRDNSKNTLYLQMNSLRAEDTAVYYCARDRPYYYYMDVWGKGTTVTVSSGGGGSGGGGSGGGGSGGGGSDIQMTQSPSSLSASVGDRVTITCRASQSVSRSLAWYQQKPGKAPKLLIYAASSLQSGVPSRFSGSGSGTDFTLTISSLQPEDFATYYCQQYKSYPVTFGQGTKVEIK
light: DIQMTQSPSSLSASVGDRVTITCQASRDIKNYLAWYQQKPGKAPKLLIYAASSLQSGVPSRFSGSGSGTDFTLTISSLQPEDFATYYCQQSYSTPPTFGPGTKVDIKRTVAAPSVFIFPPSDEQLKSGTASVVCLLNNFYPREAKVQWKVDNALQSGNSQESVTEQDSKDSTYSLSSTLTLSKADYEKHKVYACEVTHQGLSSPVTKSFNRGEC
Take B3: in the test with human MAdCAM, the Kd was found to be 122 nM, the koff was determined as 0.0389 s⁻¹, the kon is 320000 M⁻¹ s⁻¹ and the response is 0.18. In the test with cyno MAdCAM [1], binding was put at a Kd of 49.9 nM, the off-rate (koff) is 0.0153 s⁻¹, the kon is 306000 M⁻¹ s⁻¹ and the response worked out at 0.169. In addition, in the test with mouse MAdCAM, the Kd was 205 nM, the koff was determined as 0.0558 s⁻¹ and the kon was found to be 272000 M⁻¹ s⁻¹.

B4: PMAB55 (bispecific antibody, human IgG1, kappa)
heavy: EVQLVQSGAEVKKPGASVKVSCKASGYSFTSYYMHWVRQAPGQGLEWMGIINPSGGSTSYAQKFQGRVTMTRDTSTSTVYMELSSLRSEDTAVYYCASGWVYWGQGTLVTVSSASTKGPSVFPLAPSSKSTSGGTAALGCLVKDYFPEPVTVSWNSGALTSGVHTFPAVLQSSGLYSLSSVVTVPSSSLGTQTYICNVNHKPSNTKVDKKVEPKSCDKTHTCPPCPAPEAAGAPSVFLFPPKPKDTLMISRTPEVTCVVVDVSHEDPEVKFNWYVDGVEVHNAKTKPREEQYNSTYRVVSVLTVLHQDWLNGKEYKCKVSNKALPAPIEKTISKAKGQPREPQVYTLPPSREEMTKNQVSLTCLVKGFYPSDIAVEWESNGQPENNYKTTPPVLDSDGSFFLYSKLTVDKSRWQQGNVFSCSVMHEALHNHYTQKSLSLSPGGGGGSGGGGSGGGGSEVQLLESGGGLVQPGGSLRLSCAASGFTFSSYWMHWVRQAPGKGLEWVSYISGSGGYTNYADSVKGRFTISRDNSKNTLYLQMNSLRAEDTAVYYCARDRPYYYDLDVWGKGTTVTVSSGGGGSGGGGSGGGGSGGGGSDIQMTQSPSSLSASVGDRVTITCRASQSISSSLAWYQQKPGKAPKLLIYAASSLQSGVPSRFSGSGSGTDFTLTISSLQPEDFATYYCQQYKSYPVTFGQGTKVEIK
light: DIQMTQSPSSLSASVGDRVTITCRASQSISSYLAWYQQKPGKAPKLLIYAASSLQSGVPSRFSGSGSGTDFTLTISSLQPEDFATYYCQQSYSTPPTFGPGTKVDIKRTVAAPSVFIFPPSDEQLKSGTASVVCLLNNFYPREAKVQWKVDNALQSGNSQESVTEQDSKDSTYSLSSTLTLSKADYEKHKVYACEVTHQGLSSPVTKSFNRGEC
With B4, the Kd with human MAdCAM is 47.6 nM; with cyno MAdCAM [1] it was 44.3 nM; with mouse MAdCAM, 59.5 nM. The koff with human MAdCAM was determined as 0.00163 s⁻¹; in the test with cyno MAdCAM [1] it was 0.00924 s⁻¹; with mouse MAdCAM it was 0.00131 s⁻¹. The results for the kon with human MAdCAM, in the test with cyno MAdCAM [1] and in the test with mouse MAdCAM were 34300 M⁻¹ s⁻¹, 209000 M⁻¹ s⁻¹ and 22000 M⁻¹ s⁻¹, respectively.

B5: MIAB124 (antibody, V domains shown)
VH: EVQLLESGGGLVQPGGSLRLSCAASGFTFSTDAMSWVRQAPGKGLEWSAISGSGGSTYSADSVKGRFTISRDNSKNTLYLQMNSLRAEDTAVYYCARARVDWNSYNDLWGQGTLVTVSS
VL: EIVMTQSPATLSVSPGERATLSCRASQSVNNKLAWYQQKPGQAPRLLIYAASTRATGIPARFSGSGSGTEFTLTISSLQSEDFAVYYCQQYSTWPITFGQGTKVEIK
notes: tested with human Fc
With B5, in the test with cyno MAdCAM [2], the affinity, expressed as Kd, was 11.5 nM.

B6: MIAB125 (antibody, V domains shown)
VH: EVQLLESGGGLVQPGGSLRLSCAASGFTFSNYAISWVRQAPGKGLEWSDISGSGGTTYYADSVKGRFTISRDNSKNTLYLQMNSLRAEDTAVYYCARERVDWNSYFDLWGQGTLVTVSS
VL: EIVMTQSPATLSVSPGERATLSCRASQGISNSYLAWYQQKPGQAPRLLIYGASTRATGIPARFSGSGSGTEFTLTISSLQSEDFAVYYCQQYYTYPPTFGQGTKVEIK
notes: tested with human Fc
Regarding B6, binding in the test with cyno MAdCAM [2] was characterised by a dissociation constant (Kd) of 0.9 nM.

B7: PMAB56 (bispecific antibody, human IgG1, kappa)
heavy: EVQLLESGGGLVQPGGSLRLSCAASGFTFSSYDMSWVRQAPGKGLEWVSGITISGGSTYYADSVKGRFTISRDNSKNTLYLQMNSLRAEDTAVYYCARGRGGSGWLDYWGQGTTVTVSSASTKGPSVFPLAPSSKSTSGGTAALGCLVKDYFPEPVTVSWNSGALTSGVHTFPAVLQSSGLYSLSSVVTVPSSSLGTQTYICNVNHKPSNTKVDKKVEPKSCDKTHTCPPCPAPEAAGAPSVFLFPPKPKDTLMISRTPEVTCVVVDVSHEDPEVKFNWYVDGVEVHNAKTKPREEQYNSTYRVVSVLTVLHQDWLNGKEYKCKVSNKALPAPIEKTISKAKGQPREPQVYTLPPSREEMTKNQVSLTCLVKGFYPSDIAVEWESNGQPENNYKTTPPVLDSDGSFFLYSKLTVDKSRWQQGNVFSCSVMHEALHNHYTQKSLSLSPGGGGGSGGGGSGGGGSEVQLLESGGGLVQPGGSLRLSCAASGFTFSSYWMHWVRQAPGKGLEWVSYISGSGGYTNYADSVKGRFTISRDNSKNTLYLQMNSLRAEDTAVYYCARDRPYYYDLDVWGKGTTVTVSSGGGGSGGGGSGGGGSGGGGSDIQMTQSPSSLSASVGDRVTITCRASQSISSSLAWYQQKPGKAPKLLIYAASSLQSGVPSRFSGSGSGTDFTLTISSLQPEDFATYYCQQYKSYPVTFGQGTKVEIK
light: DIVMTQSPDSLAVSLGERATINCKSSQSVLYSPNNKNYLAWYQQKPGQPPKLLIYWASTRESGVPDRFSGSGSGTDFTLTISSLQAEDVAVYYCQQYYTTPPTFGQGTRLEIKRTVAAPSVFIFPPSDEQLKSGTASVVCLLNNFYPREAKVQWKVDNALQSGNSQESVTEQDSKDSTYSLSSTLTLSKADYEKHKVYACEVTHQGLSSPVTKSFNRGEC
On to B7, for which the Kd turned out to be 208 nM with human MAdCAM, 96.5 nM in the test with cyno MAdCAM [1] and 161 nM in the test with mouse MAdCAM. The koff with human MAdCAM came out at 0.00491 s⁻¹; with cyno MAdCAM [1], 0.0591 s⁻¹; with mouse MAdCAM it was 0.00147 s⁻¹. Besides, the kon in the test with human MAdCAM is 23600 M⁻¹ s⁻¹; in the test with cyno MAdCAM [1] it was 612000 M⁻¹ s⁻¹; with mouse MAdCAM, 9120 M⁻¹ s⁻¹.
